{"source": "patent US6037158A", "about": "“Alcohol dehydrogenase and its use for the enzymatic production of chiral hydroxy compounds” (priority 1996, dated 2000)", "molecules": {"B1": {"name": "alcohol dehydrogenase from Lactobacillus brevis: stable R-specific NADP-dependent alcohol dehydrogenase purified to homogeneity from Lactobacillus brevis DSM 20054 (protein)", "chain": "MSNRLDGKVAIITGGTLGIGLAIATKFVEEGAKVMITGRHSDVGEKAAKSVGTPDQIQFFQHDSSDEDGWTKLFDATEKAFGPVSTLVNNAGIAVNKSVEETTTAEWRKLLAVNLDGVFFGTRLGIQRMKNKGLGASIINMSSIEGFVGDPSLGAYNASKGAVRIMSKSAALDCALKDYDVRVNTVHPGYIKTPLVDDLPGAEEAMSQRTKTPMGHIAEPNDIAYICVYLASNESKFATGSEFVVDGGYTAQ"}}, "key": {"[1]": {"tested_on": "whole cells of Lactobacillus brevis", "assay": "Reduction of ketones with whole cells", "type": "cell-based", "settings": "after 2 h incubation at 30° C., 10 mM acetophenone, 50 mg cells, 0.1 M glucose", "method": "In addition ketones can be reduced to chiral alcohols using whole cells of L. brevis. […] The coenzyme regeneration can be achieved by isopropanol or by metabolizable substrates such as glucose.\nTest mixture: 50 mg cells of L. brevis (wetweight after centrifugation) is suspended in 860 μl triethanolamine buffer (50 mM; pH 7.50; addition of 1 MM MgCl^2+) which contains 0.1 M glucose and 10 mM acetophenone. Samples are analysed by means of gas chromatography. […] Since a quantification by means of GC separation on a chiral stationary phase had been carried out, it was possible to show at the same time that the phenylethanol that forms is of high optical purity but no quantifiable (S)-alcohol could be detected. The optical purity is considerably >95% for (R)-alcohol."}, "[2]": {"molecular_target": "T1, alcohol dehydrogenase from Lactobacillus brevis (Levilactobacillus brevis, UniProt Q84EX5)", "T1 construct": "same enzyme regenerates NADPH with isopropanol", "T1 sequence (Q84EX5 2-252)": "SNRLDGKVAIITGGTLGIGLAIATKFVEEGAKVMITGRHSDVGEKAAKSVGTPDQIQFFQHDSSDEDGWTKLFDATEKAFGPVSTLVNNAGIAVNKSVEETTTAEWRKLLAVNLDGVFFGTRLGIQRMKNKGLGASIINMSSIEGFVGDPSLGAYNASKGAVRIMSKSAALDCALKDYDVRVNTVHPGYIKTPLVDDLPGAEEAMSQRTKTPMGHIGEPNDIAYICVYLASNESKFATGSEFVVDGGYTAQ", "type": "biochemical", "settings": "l. brevis alcohol dehydrogenase, 24 h, 5000 µM, pH 7", "method": "Purified enzyme (example 2C) and the necessary coenzyme (NADP) were used for the enzyme-catalysed synthesis of (R)-phenylethanol from acetophenone. The oxidized co-enzyme was continuously regenerated by isopropanol which was simultaneously present so that the reaction only required catalytic amounts of coenzyme. In detail the mixture contained (the final concentrations of the components in the test are listed in brackets): 20 μl NADP (0.05 mM), 7.7 μl isopropanol (0.1 M), 0.6 μl acetophenone (5 mM), 921.7 μl triethanolamine buffer (50 mM; pH 7.0, containing 1 mM MgCl2) and 50 μl alcohol dehydrogenase from Lactobacillus brevis (4.5 units). This mixture with a total volume of 1 ml was incubated for 24 hours at 30° C., then a sample was analysed by means of gas chromatography. For this 100 μl was removed, shaken out with 100 μl chloroform, the phases were separated by centrifugation and an aliquot was taken from the lower phase (chloroform) for the GC.\nThe separation conditions for the separation of (R)- and (S)-phenylethanol on a gas chromatograph: stationary phase: Lipodex E, CD column (Macherey and Nagel, Duren), mobile phase: helium, injection volumes: 1 μl detection: FID, temperature: 110° C. Under these conditions the substrate acetophenone is eluted at 10.5 min, (S)-phenylethanol at 13.8 min and (R)-phenylethanol at 14.2 min. […]"}, "[3]": {"molecular_target": "T2, alcohol dehydrogenase from L. brevis (Levilactobacillus brevis, UniProt Q84EX5)", "T2 sequence (Q84EX5 2-252)": "T1 sequence (Q84EX5 2-252)", "assay": "biochemical", "type": "biochemical", "settings": "10 mM keto compound", "method": "A series of other ketones and keto esters were used instead of acetophenone and it was tested whether these can be reduced by enzyme catalysis.\nThe following test mixture was used for this:\n970 μl triethanolamine buffer (50 mM; pH 7.0, containing 10 mM keto compound)\n20 μl NADPH (0.19 mM in the test)\nSome of the ketones were also tested at a concentration of 1 mM in order to verify a possible substrate inhibition at 10 mM."}, "[4]": {"assay": "Standard enzyme test of purified enzyme (acetophenone, NADPH)", "type": "biochemical", "method": "The process for the isolation and purification of the ADH enzyme proceeds essentially via the following process steps: disruption of the cultured cells, such as by glass beads, carrying out hydrophobic chromatography or interaction chromatography and followed by subsequent anion exchange and affinity chromatography. In particular it has proven to be advantageous when all homogenization and elution buffers contain from about 0.5 to about 5 mM magnesium. In this connection a Mg^2+ concentration of about 1 mM has proven to be particularly advantageous. In this manner an enzyme is obtained which has a specific activity of at least 400 U/mg and in many cases up to 500 U/mg.\nThe enzyme was released from the cells by wet-grinding with the aid of glass beads (0.3 mm), but can also be achieved by any other method for disrupting bacterial cells. The bacterial mass is diluted to a 40% suspension with 0.1 M acetate buffer pH 4.0+1 mM MgCl2 supplemented with an antifoaming agent (polypropylene glycol). This was subjected to a 20 minute disruption while cooling continuously in a disintegrator (IMA Co.) at 4000 rpm with addition of glass beads in a ratio of 1:2. 8 g bacteria yielded 10 ml crude extract with a volume activity of 40 U/ml and a protein content of ca. 3 mg/ml. […]"}, "[5]": {"assay": "pH stability of the alcohol dehydrogenase (30 min incubation, then standard acetophenone test)", "type": "physicochemical", "settings": "for Activity: 30 min", "method": "The dependence of the activity of the enzyme when stored in buffers with various pH values was examined in the range of pH 4 to 11. Depending on the buffer capacity various buffers in the pH range of 4 to 11 were prepared and the homogeneous enzyme was incubated therein for 30 minutes. 1 μl thereof was removed and added to the normal test reagent mixture of 970 μl triethanolamine buffer (100 mM; pH 7.0 containing 11 mM acetophenone) and 20 μl NADPH (final concentration 0.19 mM). The reaction was monitored for 1 minute at 30° C. and 340 nm."}, "[6]": {"assay": "Temperature optimum of enzyme activity", "type": "biochemical"}, "[7]": {"assay": "Temperature stability of the alcohol dehydrogenase (30 min at temperature, measured at 30° C.)", "type": "physicochemical", "settings": "for temperature of maximum stability: 30 min", "method": "The temperature stability in the range of 25 to 70° C. was determined in an analogous manner to that described under A. The homogeneous enzyme solution was subjected for 30 min to the recited temperatures and subsequently measured directly at 30° C. with the above test mixture. […] In contrast the ADH from L. kefir is only stable up to 40° C. with a maximum at 37° C., afterwards the activity decreases rapidly. The maximum for this enzyme is at 37° C."}, "[8]": {"settings": "listed as enzyme according to the invention"}}, "note": "Like-named read-outs stand apart in the source and are kept apart here."}
{"molecule": "CC(=O)c1ccccc1", "note": "[acetophenone]", "values": [{"measurement": "substrate remaining (GC)", "setting": "[1]", "result": "no longer detectable"}, {"measurement": "substrate converted", "setting": "[2]", "result": "more than 95%"}, {"measurement": "Activity", "setting": "[3]; 0.19 mM NADPH, pH 7.0, purified enzyme diluted 1:10", "result": 3.26, "unit": "U/ml"}, {"measurement": "activity at 10000 µM", "setting": "[3]; relative to acetophenone = 100, read-out: Relative act.", "result": 100, "unit": "%"}]}
{"molecule": "B1", "values": [{"measurement": "specific activity", "setting": "[4]", "result": "at least 400 U/mg"}, {"measurement": "Activity", "setting": "[5]; pH 4.0, Na acetate/acetic acid", "result": 6.86, "unit": "U/ml"}, {"measurement": "pH value of maximum stability (larger maximum)", "setting": "[5]; pH 4 to 11, 30 min", "result": 9.0}, {"measurement": "pH value of the smaller maximum of pH stability", "setting": "[5]; pH 4 to 11, 30 min", "result": 5.5}, {"measurement": "pH value of maximum stability (larger maximum)", "setting": "[5]; pH 4 to 11, 30 min, listed as ADHs according to the invention", "result": "about 9.0"}, {"measurement": "Activity", "setting": "[5]; pH 4.5, Na acetate/acetic acid", "result": 6.22, "unit": "U/ml"}, {"measurement": "Activity", "setting": "[5]; pH 5.0, MES/NaOH", "result": 7.04, "unit": "U/ml"}, {"measurement": "Activity", "setting": "[5]; pH 5.5, MES/MaOH", "result": 8.73, "unit": "U/ml"}, {"measurement": "Activity", "setting": "[5]; pH 6.0, triethanolamine/NaOH", "result": 5.58, "unit": "U/ml"}, {"measurement": "Activity", "setting": "[5]; pH 6.5, triethanolamine/NaOH", "result": 5.80, "unit": "U/ml"}, {"measurement": "Activity", "setting": "[5]; pH 7.0, triethanolamine/NaOH", "result": 6.57, "unit": "U/ml"}, {"measurement": "Activity", "setting": "[5]; pH 7.5, Tris/HCl", "result": 5.04, "unit": "U/ml"}, {"measurement": "Activity", "setting": "[5]; pH 8.0, Tris/HCl", "result": 3.83, "unit": "U/ml"}, {"measurement": "Activity", "setting": "[5]; pH 8.5, Tris/HCl", "result": 8.42, "unit": "U/ml"}, {"measurement": "Activity", "setting": "[5]; pH 9.0, Tris/HCl", "result": 17.11, "unit": "U/ml"}, {"measurement": "Activity", "setting": "[5]; pH 10.0, glycine/NaOH", "result": 1.25, "unit": "U/ml"}, {"measurement": "Activity", "setting": "[5]; pH 11.0, glycine/NaOH", "result": 2.43, "unit": "U/ml"}, {"measurement": "optimal test temperature (activity maximum)", "setting": "[6]", "result": 50, "unit": "°C"}, {"measurement": "optimal test temperature (activity maximum)", "setting": "[6]; [8]", "result": "ca. 50 °C"}, {"measurement": "act. (temperature optimum)", "setting": "[6]; test temperature 25° C.", "result": 10.31, "unit": "U/ml"}, {"measurement": "act. (temperature optimum)", "setting": "[6]; test temperature 30° C.", "result": 9.66, "unit": "U/ml"}, {"measurement": "act. (temperature optimum)", "setting": "[6]; test temperature 37° C.", "result": 9.76, "unit": "U/ml"}, {"measurement": "act. (temperature optimum)", "setting": "[6]; test temperature 40° C.", "result": 17.78, "unit": "U/ml"}, {"measurement": "act. (temperature optimum)", "setting": "[6]; test temperature 42° C.", "result": 16.93, "unit": "U/ml"}, {"measurement": "act. (temperature optimum)", "setting": "[6]; test temperature 45° C.", "result": 18.06, "unit": "U/ml"}, {"measurement": "act. (temperature optimum)", "setting": "[6]; test temperature 47° C.", "result": 19.13, "unit": "U/ml"}, {"measurement": "act. (temperature optimum)", "setting": "[6]; test temperature 50° C.", "result": 31.46, "unit": "U/ml"}, {"measurement": "act. (temperature optimum)", "setting": "[6]; test temperature 55° C.", "result": 24.48, "unit": "U/ml"}, {"measurement": "act. (temperature optimum)", "setting": "[6]; test temperature 60° C.", "result": 23.69, "unit": "U/ml"}, {"measurement": "act. (temperature optimum)", "setting": "[6]; test temperature 65° C.", "result": 1.98, "unit": "U/ml"}, {"measurement": "act. (temperature optimum)", "setting": "[6]; test temperature 70° C.", "result": 0.58, "unit": "U/ml"}, {"measurement": "temperature at which the enzyme is inactivated by 50% (thermal deactivation)", "setting": "[7]", "result": "about 65 °C"}, {"measurement": "retained activity", "setting": "[7]; 50 mM MES buffer, about 30 minutes, between 25° C. and 60° C.", "result": "over 95%"}, {"measurement": "temperature of maximum stability", "setting": "[7]", "result": 40, "unit": "°C"}, {"measurement": "temperature of maximum stability", "setting": "[7]; [8]", "result": "ca. 40 °C"}, {"measurement": "act. (temperature stability)", "setting": "[7]; 30 min at 25° C.", "result": 9.43, "unit": "U/ml"}, {"measurement": "act. (temperature stability)", "setting": "[7]; 30 min at 30° C.", "result": 8.74, "unit": "U/ml"}, {"measurement": "act. (temperature stability)", "setting": "[7]; 30 min at 37° C.", "result": 12.06, "unit": "U/ml"}, {"measurement": "act. (temperature stability)", "setting": "[7]; 30 min at 40° C.", "result": 12.15, "unit": "U/ml"}, {"measurement": "act. (temperature stability)", "setting": "[7]; 30 min at 42° C.", "result": 11.16, "unit": "U/ml"}, {"measurement": "act. (temperature stability)", "setting": "[7]; 30 min at 45° C.", "result": 10.81, "unit": "U/ml"}, {"measurement": "act. (temperature stability)", "setting": "[7]; 30 min at 47° C.", "result": 8.23, "unit": "U/ml"}, {"measurement": "act. (temperature stability)", "setting": "[7]; 30 min at 50° C.", "result": 8.37, "unit": "U/ml"}, {"measurement": "act. (temperature stability)", "setting": "[7]; 30 min at 60° C.", "result": 8.51, "unit": "U/ml"}, {"measurement": "act. (temperature stability)", "setting": "[7]; 30 min at 70° C.", "result": 0.56, "unit": "U/ml"}]}
